This passage reports Ki results from patent publication US20210032299A1 (Eli Lilly, published 2021).

Starred links: 1 amine or outer side, 2 acyl side, 3 side chain; linkers in the order of their positions; H or OH if unused. Non-standard residues stand in square brackets, D forms with d. Groups on a side chain read outwards from the residue. No end group written: not given here. *: point of attachment. C20 diacid = O=C(O)CCCCCCCCCCCCCCCCCCC(=O)*; γGlu = O=C(O)[C@H](CCC(=O)[*:2])N[*:1]; αMeY = C[C@](N)(Cc1ccc(O)cc1)C(=O)O; 4Pal = N[C@@H](Cc1ccncc1)C(=O)O; αMeL = CC(C)C[C@](C)(N)C(=O)O; AEEA = NCCOCCOCC(=O)O; Aib = CC(C)(N)C(=O)O

One may read the Ki as the equilibrium dissociation constant of an inhibitor or competing ligand from its target.

The target in experiment [1] is T1, human glucose-dependent insulinotropic polypeptide (GIP) receptor (human, UniProt P48546 22-466).
T1 construct: whole, on cells; Assayed as crude membranes of stably transfected CHO cells; also called hGIPR; human GIP receptor
T1 sequence (looked up): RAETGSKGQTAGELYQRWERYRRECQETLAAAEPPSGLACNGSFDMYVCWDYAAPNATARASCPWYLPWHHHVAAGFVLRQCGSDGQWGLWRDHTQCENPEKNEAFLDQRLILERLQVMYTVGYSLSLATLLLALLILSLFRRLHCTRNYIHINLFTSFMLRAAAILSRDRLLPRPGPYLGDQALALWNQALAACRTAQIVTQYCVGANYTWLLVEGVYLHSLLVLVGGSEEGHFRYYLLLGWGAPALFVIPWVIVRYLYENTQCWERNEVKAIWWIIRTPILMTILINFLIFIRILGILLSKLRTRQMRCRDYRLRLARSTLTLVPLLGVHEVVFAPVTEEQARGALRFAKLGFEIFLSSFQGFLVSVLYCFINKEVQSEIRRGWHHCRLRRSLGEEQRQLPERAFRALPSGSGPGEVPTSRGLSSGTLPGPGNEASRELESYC
As to the kind of experiment: SPA, displacement of [125I]-GIP from hGIPR membranes, 0.1% bacitracin. Background: Displacement assays read how much labelled ligand stays bound in the presence of the test substance.

Experiment [2] addresses T2, human glucagon receptor (human, UniProt P47871 26-477).
T2 construct: whole, on cells; Assayed as crude membranes of stably transfected HEK293 cells; also called hGcgR; GcgR
As to the kind of experiment: SPA, displacement of [125I]-Gcg from hGcgR membranes, 0.1% bacitracin. In short, it runs like this:
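Binding buffer: 25 mM HEPES pH 7.4, 2.5 mM CaCl₂, 1 mM MgCl₂, 0.003% Tween-20, protease inhibitors without EDTA. Counted by scintillation after 12 h incubation/settling at room temperature. Four-parameter nonlinear fit; Kᵢ given as geometric mean ± SEM of independent replicates run on different days.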

For experiment [3], the target named is T3, human GLP-1 receptor (human, UniProt P43220 24-463).
T3 construct: whole, on cells; Assayed as crude membranes of stably transfected HEK293 cells; also called hGLP1R; hGLP-1R
As to the kind of experiment: SPA, displacement of [125I]-GLP-1 from hGLP-1R membranes, 0.1% bacitracin. In short, it runs like this: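 Binding buffer: 25 mM HEPES pH 7.4, 2.5 mM CaCl₂, 1 mM MgCl₂, 0.1% bacitracin, 0.003% Tween-20, protease inhibitors without EDTA. Four-parameter nonlinear regression; Kᵢ given as geometric mean ± SEM, n = independent replicates run on different days.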

T2 sequence (P47871 26-477): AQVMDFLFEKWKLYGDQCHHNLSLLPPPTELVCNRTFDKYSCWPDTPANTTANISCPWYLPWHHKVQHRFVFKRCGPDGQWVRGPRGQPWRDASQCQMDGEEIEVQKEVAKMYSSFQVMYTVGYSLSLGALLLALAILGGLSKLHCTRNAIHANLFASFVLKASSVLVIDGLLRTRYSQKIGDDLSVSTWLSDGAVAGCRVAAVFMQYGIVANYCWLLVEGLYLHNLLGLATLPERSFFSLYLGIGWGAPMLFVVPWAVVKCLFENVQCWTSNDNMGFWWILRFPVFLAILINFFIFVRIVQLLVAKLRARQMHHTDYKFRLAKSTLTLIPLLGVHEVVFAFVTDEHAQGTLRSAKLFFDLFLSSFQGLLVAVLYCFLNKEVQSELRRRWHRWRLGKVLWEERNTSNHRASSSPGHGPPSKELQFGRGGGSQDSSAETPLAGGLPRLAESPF

B1: Example 89 (peptide)
peptide: Y[Aib]EGTLISDYSI[αMeL]LDKK([AEEA-AEEA-γGlu-C20 diacid])HQ[Aib]DFVE[4Pal]LLEAGPSSGAPPPS-NH2
modifications: N-terminus assumed
SMILES: CC[C@H](C)[C@H](NC(=O)[C@H](CC(C)C)NC(=O)[C@@H](NC(=O)CNC(=O)[C@H](CCC(=O)O)NC(=O)C(C)(C)NC(=O)[C@@H](N)Cc1ccc(O)cc1)[C@@H](C)O)C(=O)N[C@@H](CO)C(=O)N[C@@H](CC(=O)O)C(=O)N[C@@H](Cc1ccc(O)cc1)C(=O)N[C@@H](CO)C(=O)N[C@H](C(=O)N[C@@](C)(CC(C)C)C(=O)N[C@@H](CC(C)C)C(=O)N[C@@H](CC(=O)O)C(=O)N[C@@H](CCCCN)C(=O)N[C@@H](CCCCNC(=O)COCCOCCNC(=O)COCCOCCNC(=O)CC[C@H](NC(=O)CCCCCCCCCCCCCCCCCCC(=O)O)C(=O)O)C(=O)N[C@@H](Cc1c[nH]cn1)C(=O)N[C@@H](CCC(N)=O)C(=O)NC(C)(C)C(=O)N[C@@H](CC(=O)O)C(=O)N[C@@H](Cc1ccccc1)C(=O)N[C@H](C(=O)N[C@@H](CCC(=O)O)C(=O)N[C@@H](Cc1ccncc1)C(=O)N[C@@H](CC(C)C)C(=O)N[C@@H](CC(C)C)C(=O)N[C@@H](CCC(=O)O)C(=O)N[C@@H](C)C(=O)NCC(=O)N1CCC[C@H]1C(=O)N[C@@H](CO)C(=O)N[C@@H](CO)C(=O)NCC(=O)N[C@@H](C)C(=O)N1CCC[C@H]1C(=O)N1CCC[C@H]1C(=O)N1CCC[C@H]1C(=O)N[C@@H](CO)C(N)=O)C(C)C)[C@@H](C)CC
Regarding B1, the Ki amounted to 0.072 nM in experiment [1], 611 nM in experiment [2] and 294 nM in experiment [3].

B2: Example 90 (peptide)
peptide: Y[Aib]EGTFISDYSI[αMeL]LDKK([AEEA-AEEA-γGlu-C20 diacid])HQ[Aib]DFVE[αMeY]LLEAGPSSGAPPPS-NH2
modifications: N-terminus assumed
SMILES: CC[C@H](C)[C@H](NC(=O)[C@H](Cc1ccccc1)NC(=O)[C@@H](NC(=O)CNC(=O)[C@H](CCC(=O)O)NC(=O)C(C)(C)NC(=O)[C@@H](N)Cc1ccc(O)cc1)[C@@H](C)O)C(=O)N[C@@H](CO)C(=O)N[C@@H](CC(=O)O)C(=O)N[C@@H](Cc1ccc(O)cc1)C(=O)N[C@@H](CO)C(=O)N[C@H](C(=O)N[C@@](C)(CC(C)C)C(=O)N[C@@H](CC(C)C)C(=O)N[C@@H](CC(=O)O)C(=O)N[C@@H](CCCCN)C(=O)N[C@@H](CCCCNC(=O)COCCOCCNC(=O)COCCOCCNC(=O)CC[C@H](NC(=O)CCCCCCCCCCCCCCCCCCC(=O)O)C(=O)O)C(=O)N[C@@H](Cc1c[nH]cn1)C(=O)N[C@@H](CCC(N)=O)C(=O)NC(C)(C)C(=O)N[C@@H](CC(=O)O)C(=O)N[C@@H](Cc1ccccc1)C(=O)N[C@H](C(=O)N[C@@H](CCC(=O)O)C(=O)N[C@@](C)(Cc1ccc(O)cc1)C(=O)N[C@@H](CC(C)C)C(=O)N[C@@H](CC(C)C)C(=O)N[C@@H](CCC(=O)O)C(=O)N[C@@H](C)C(=O)NCC(=O)N1CCC[C@H]1C(=O)N[C@@H](CO)C(=O)N[C@@H](CO)C(=O)NCC(=O)N[C@@H](C)C(=O)N1CCC[C@H]1C(=O)N1CCC[C@H]1C(=O)N1CCC[C@H]1C(=O)N[C@@H](CO)C(N)=O)C(C)C)[C@@H](C)CC
For B2, the Ki in experiment [1] came out at 0.129 nM; in experiment [2], 112 nM; in experiment [3] it was 102 nM.
